Results on one substance are retold here after PMC2845083.

The target of this assay is 6xHis-hKNL1 fragment (amino acids 1-86), Ser-Asp phospho-mimetic mutations in the SILK and RVSF motifs (human) (UniProt Q8NG31). Put plainly: pull-down.

Some results are limits rather than exact numbers.

In turn, “recombinant hPP1γ (protein phosphatase 1 gamma catalytic subunit) (from UniProt P36873 1-323) (enzyme)” had a reduction of binding against wild type of more than 70%.
